# Data as given in US20220056125A1 (CEPHALON, published 2022).
# Substitutions are numbered along the chain they refer to.
# B1: P24E60 (antibody, human IgG4 S228P, kappa, V domains shown)
# VH: QVQLVQSGAEVKKPGSSVKVSCKASGFSLNSYGVIWVRQAPGQGLEWMGVIWGNGNTYYNQKFQGRVTITADESTSTAYMELSSLRSEDTAVYYCARWRGYKDYPFDYWGQGTLVTVSS
# VL: EIVLTQSPATLSLSPGERATLSCKASQNIYKWLDWYQQKPGQAPRLLIYNTNSLHTGIPARFSGSGSGRDFTLTISSLEPEDFAVYYCLQHNSGWTFGGGTKVEIKR
# B2: P24E280 (antibody, human IgG4 S228P, kappa, V domains shown)
# VH: B1 VH with N30S, N60A
# VL: B1 VL with I29V, W32Y, H55A
# B3: P24E294 (antibody, human IgG4 S228P, kappa, V domains shown)
# VH: B1 VH with G33A, V34I, I35S, N60A
# VL: B1 VL with K24R, W32Y, H55A
# B4: P24E233 (antibody, human IgG4 S228P, kappa, V domains shown)
# VH: B1 VH with N60Y
# VL: B1 VL with W32Y
# B5: P24E281 (antibody, human IgG4 S228P, kappa, V domains shown)
# VH: B1 VH with N30S, N60A
# VL: B1 VL with W32Y, T51A, H55A
# B6: P24E286 (antibody, human IgG4 S228P, kappa, V domains shown)
# VH: B1 VH with G33A, N60A
# VL: B1 VL with W32Y, T51A, H55A
# B7: P24E297 (antibody, human IgG4 S228P, kappa, V domains shown)
# VH: B1 VH with G33A, V34I, I35S, N60A
# VL: B1 VL with W32Y, L54R, H55A
# B8: P24E288 (antibody, human IgG4 S228P, kappa, V domains shown)
# VH: B1 VH with V34I, N60A
# VL: B1 VL with W32Y, H55A
# B9: P24E282 (antibody, human IgG4 S228P, kappa, V domains shown)
# VH: B1 VH with N30S, N60A
# VL: B1 VL with W32Y, L54R, H55A
# B10: P24E285 (antibody, human IgG4 S228P, kappa, V domains shown)
# VH: B1 VH with G33A, N60A
# VL: B1 VL with I29V, W32Y, H55A
# B11: P24E219 (antibody, human IgG4 S228P, kappa, V domains shown)
# VH: B1 VH with V34G
# VL: B1 VL with W32Y
# B12: P24E291 (antibody, human IgG4 S228P, kappa, V domains shown)
# VH: B1 VH with V34I, N60A
# VL: B1 VL with W32Y, T51A, H55A
# B13: P24E298 (antibody, human IgG4 S228P, kappa, V domains shown)
# VH: B1 VH with N30S, G33A, V34I, I35S, N60A
# VL: B1 VL with H55A
# B14: P24E914 (antibody, human IgG4 S228P, kappa, V domains shown)
# VH: B1 VH with N30S, G33A, V34I, I35S, N60A, R99K
# VL: B1 VL with K24R, T51A, N52Y, H55A, L89Q
# B15: P24E186 (antibody, human IgG4 S228P, kappa, V domains shown)
# VH: B1 VH with Y101W
# VL: B1 VL with W32Y
# B16: P24E794 (antibody, human IgG4 S228P, kappa, V domains shown)
# VH: B1 VH with N30S, G33A, V34I, I35S, N60A
# VL: B1 VL with K24R, I29V, T51A, N52Y, L54R, H55A, L89Q
# B17: P24E295 (antibody, human IgG4 S228P, kappa, V domains shown)
# VH: B1 VH with G33A, V34I, I35S, N60A
# VL: B1 VL with I29V, W32Y, H55A
# B18: P24E292 (antibody, human IgG4 S228P, kappa, V domains shown)
# VH: B1 VH with V34I, N60A
# VL: B1 VL with W32Y, L54R, H55A
# B19: P24E232 (antibody, human IgG4 S228P, kappa, V domains shown)
# VH: B1 VH with N60G
# VL: B1 VL with W32Y
# B20: P24E889 (antibody, human IgG4 S228P, kappa, V domains shown)
# VH: B1 VH with N30S, G33A, V34I, I35S, N60A
# VL: B1 VL with K24R, T51A, N52Y, H55A, L89Q
# B21: P24E284 (antibody, human IgG4 S228P, kappa, V domains shown)
# VH: B1 VH with G33A, N60A
# VL: B1 VL with K24R, W32Y, H55A
# B22: P24E279 (antibody, human IgG4 S228P, kappa, V domains shown)
# VH: B1 VH with N30S, N60A
# VL: B1 VL with K24R, W32Y, H55A
# B23: P24E278 (antibody, human IgG4 S228P, kappa, V domains shown)
# VH: B1 VH with N30S, N60A
# VL: B1 VL with W32Y, H55A
# B24: P24E301 (antibody, human IgG4 S228P, kappa, V domains shown)
# VH: B1 VH with N30S, G33A, V34I, I35S, N60A, R99K
# VL: B1 VL with H55A
# B25: P24E296 (antibody, human IgG4 S228P, kappa, V domains shown)
# VH: B1 VH with G33A, V34I, I35S, N60A
# VL: B1 VL with W32Y, T51A, H55A
# B26: P24E216 (antibody, human IgG4 S228P, kappa, V domains shown)
# VH: B1 VH with S31Y
# VL: B1 VL with W32Y
# B27: P24E743 (antibody, human IgG4 S228P, kappa, V domains shown)
# VH: B1 VH with N30S, G33A, V34I, I35S, N60A
# VL: B1 VL with I29V, T51A, N52Y, H55A, L89Q, N92G
# B28: P24E293 (antibody, human IgG4 S228P, kappa, V domains shown)
# VH: B1 VH with G33A, V34I, I35S, N60A
# VL: B1 VL with W32Y, H55A
# B29: P24E300 (antibody, human IgG4 S228P, kappa, V domains shown)
# VH: B1 VH with N30S, G33A, V34I, I35S, N60A, Y101W
# VL: B1 VL with H55A
# B30: P24E283 (antibody, human IgG4 S228P, kappa, V domains shown)
# VH: B1 VH with G33A, N60A
# VL: B1 VL with W32Y, H55A
# B31: P24E61 (antibody, human IgG4 S228P, kappa, V domains shown)
# VH: B1 VH
# VL: B1 VL with W32F
# B32: P24E289 (antibody, human IgG4 S228P, kappa, V domains shown)
# VH: B1 VH with V34I, N60A
# VL: B1 VL with K24R, W32Y, H55A
# B33: P24E883 (antibody, human IgG4 S228P, kappa, V domains shown)
# VH: B1 VH with N30S, G33A, V34I, I35S, N60A
# VL: B1 VL with I29V, T51A, N52Y, H55A, L89Q
# B34: P24E290 (antibody, human IgG4 S228P, kappa, V domains shown)
# VH: B1 VH with V34I, N60A
# VL: B1 VL with I29V, W32Y, H55A
# B35: P24E287 (antibody, human IgG4 S228P, kappa, V domains shown)
# VH: B1 VH with G33A, N60A
# VL: B1 VL with W32Y, L54R, H55A
# Molecular target: T1, human PAR-2 (human, UniProt P55085 26-397)
# T1 sequence: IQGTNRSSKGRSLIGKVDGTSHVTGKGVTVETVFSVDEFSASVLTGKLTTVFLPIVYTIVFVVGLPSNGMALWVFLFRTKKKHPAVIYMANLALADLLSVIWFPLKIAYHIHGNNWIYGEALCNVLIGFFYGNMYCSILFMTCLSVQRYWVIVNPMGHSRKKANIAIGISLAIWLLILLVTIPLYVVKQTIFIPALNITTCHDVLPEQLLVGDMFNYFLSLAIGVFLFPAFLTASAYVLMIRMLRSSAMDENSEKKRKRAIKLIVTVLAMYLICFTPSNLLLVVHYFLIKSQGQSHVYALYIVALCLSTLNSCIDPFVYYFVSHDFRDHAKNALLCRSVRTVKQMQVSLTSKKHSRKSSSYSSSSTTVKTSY
# Assay: cell-based or functional assay
"PAR-2 β-arrestin cell based assay IC50, 1 µM SLIGKV [nM]","PAR-2 β-arrestin cell based assay IC50, 2 µM SLIGKV [nM]",Binder
2.03,–,B1
–,1.9,B2
–,2.9,B3
1.77,–,B4
–,2.6,B5
–,2.1,B6
–,3,B7
–,1.4,B8
–,2,B9
–,2.3,B10
1.33,–,B11
–,3.1,B12
–,1.47,B13
–,0.94,B14
3.25,–,B15
–,0.89,B16
–,1.6,B17
–,1.2,B18

"PAR-2 β-arrestin cell based assay IC50, 1 µM SLIGKV [nM]","PAR-2 β-arrestin cell based assay IC50, 2 µM SLIGKV [nM]",Binder
1.99,–,B19
–,0.97,B20
–,2.5,B21
–,2.8,B22
–,2.5,B23
–,1.48,B24
–,2.4,B25
1.95,–,B26
–,1.51,B27
–,2,B28
–,1.3,B29
–,3.6,B30
2.56,–,B31
–,2.6,B32
–,1.21,B33
–,2.2,B34
–,2.2,B35
